These results are taken from PMC5148137 (Biochemical and biophysical research communications, 2012).

In general, stoichiometry N refers to the number of molecules, sites or subunits per partner or assembly.

The target in the assay is Cul3(1–383)-(His)6 (co-expressed) (human, UniProt Q13618 1-383). Briefly: AUC.
Chain of Cul3(1–383)-(His)6 (co-expressed) (Q13618 1-383): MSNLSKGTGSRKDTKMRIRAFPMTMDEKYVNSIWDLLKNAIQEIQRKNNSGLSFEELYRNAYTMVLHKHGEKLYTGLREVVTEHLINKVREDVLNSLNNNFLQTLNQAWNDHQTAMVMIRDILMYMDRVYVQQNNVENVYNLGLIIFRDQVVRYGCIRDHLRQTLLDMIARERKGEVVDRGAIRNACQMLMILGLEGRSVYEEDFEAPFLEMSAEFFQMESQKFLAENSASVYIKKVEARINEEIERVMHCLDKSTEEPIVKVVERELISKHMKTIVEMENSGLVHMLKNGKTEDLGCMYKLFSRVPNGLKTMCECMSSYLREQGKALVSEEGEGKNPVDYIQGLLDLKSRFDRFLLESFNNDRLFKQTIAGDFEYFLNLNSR

B1: MBP-KBTBD13(6–132) (domain or fragment, human, UniProt C9JR72 6-132, looked up)
chain: QTLVQVWVGGQLFQADRALLVEHCGFFRGLFRSGMRETRAAEVRLGVLSAGGFRATLQVLRGDRPALAAEDELLQAVECAAFLQAPALARFLEHNLTSDNCALLCDAAAAFGLRDVFHSAALFICDG
As for B1, the “stoichiometry N” value was determined as 1.
